Results: a protein production outcome set (Wang et al. 2014)

Experiment: label from the status in PepcDB records

Sequence | protein production
MSARLDAQIAFLKQADRLKSVERANVLLDLSRPENSAEHSWHLALWALVLSPFAAPDVDVDRAIRMLLLHDLVEIETGDHPIHEVTDWQAVERAERAAARKLFGLLPPDQAADFHTLWTEFDADETADARYAKMLDRCQPMFQVLCADTPRPDHVEVVRENLSSGRAAYLAEAFPEAHAHARALLERHPPVTGGFGDRLEFLAEADRLKTVLRASRLMDDSRFENSAEHSWHIMLYAWVLGEYAAAPVDIDRVLRMLLLHDLVEIDAGDNPIHGNVDHAAQEALEAAAAERLFGLLPPDQGAGLRAIWQEFETAQSADALFGKAVDRVQTPIANLENGGGSWVTYDVSLQQLVARVGTPVSRGAPGLWDWLFPQLSDCFTRLGLRLLEHHHHHH | not failed
MTTENTTALLLIDFQNDYFSTYNGAKNPLVGTEAAAEQGAKLLAKFRQQGLPVVHVRHEFPTDEAPFFLPGSDGAKIHPSVAAQEGEAVVLKHQINSFRDTDLKKVLDDAGIKKLVIVGAMTHMCIDAVTRAAEDLGYECAVAHDACATLDLEFNGITVPAAQVHAAFMSALSFAYANVASADELIAGL | not failed
MMDAMTDPITFAATAAGRDAAHPLRDISFGEIGIATERKPDGTIYVRSTTTLTDYPVRITDRLHHFAETAPDRVFMAERNGEGGWRRISYAEMLRAAQTIASALIARGLSAERPVMILSGNSIDHAMVMFGALYAGVAMCPVSPPYSLVSKDYGKLRHIVGLLTPGLIFADDITAFAPAILATVPEDVELAATRGEVKGRKVTSLAELLATPEHPELAAKHEAIGHDTIAKFLLTSGSTGNPKAVINTQRMICANQVMIREAMAFLKDEPPVIVDWLPWNHTFGGNHNIGLTLFNGGSMYIDDGKPTPAGIASTIRNLREIAPTVYFNVPKGYESLLPVLREDQQLRKLFFSRLHAMFFSGASLAAHVWNGLDEVAVAETGARVPMLTGLGATETAPFFMSVTPQTSRSGHVGLPVPGNEAKLVPNNGKLEVRAKGPNITPGYWRAPELTDKAFDEEGFYKLNDALKPVDANDLSRGFDFDGRISEDFKLASGTWVSVGPLRAKFIAACASLVRDVVIAGLDRDYVTALAILDPDGCKLINATLPLEDLAGMAADHLIREAFRERFATLLTQATGSSNRVTRAVLLGEPLSIDKGEITDKGSVNQRAVLEYRASLIADLYADPPPAHVIALELEHHHHHH | not failed
MSMYNMDLDKVIRKINKKGARTVGLQFPEGLKMQAVKIAKAIESQTPATVIISGDPCFGACDVSDYKMKGSVDLIVHYGHTPLPLKYEVPTLFIEAFSNIDVKKDLEKCLEKLEDYSKIALVTTTQHLHLLNEIKDYLEDNGKEVVLGSSKNTKKGQVLGCNFSSIKNLDAEVYLFIGSGNFHPLGIYLFTKSPVLALDPYNSEIRDISAFADRILRIRFARITKAREAEKWGIIVSSKEGQYRMKLAKEIKKILEDNKMEAYIIMADNINPDILLPYMELDAFVVSACPRIAIDDSQMYKKPLLTPQELEIVLNKRQWENYQLDEILFHERYK | failed
MKKAKLIFKDNTPFSLDFDDFYFNFKDGLNESKFVYTHSFEWKNQENFIIAESGFGIGLNFFLTLKRFLETTPSKRPKKLFYISVEAFYIEKEQLREIYQKLEFYEEFKELLEQFLKFYPKAKEGIYRFYFEDCFLDLVFEDIAVLKELDFKADVWYLDGFSPNKNSQMFDENLIFEVARLSKKNTQICTFSSASFLQKNLKKYGFRVEKTKGFRKREMIKAYLENELEFKDKEAYFSRTFSSLKNKKVAIIGAGISSAVLAYELSLRGFEIDIFEKHLELGKGASGNESGILSSLILKPKVNLGEFSELSFIEASRFYRQILDLEFKGVVEFAHNDLMQERFDTQRENVLFKISKNQAFLEEGGVIFPKKLVKNLFEKSKACIYFNHEFQAYKFENGCFSLKFKNDVVKSDYAVLIYAMGADAKDFVFYDEMKLSKVRGQVTHLKPFLDTPFPLSSKAYICPVKDDLQVIGASYDRLNASLESKEEDDKQNIENIADFMDKNTKLEIIGSKVGFRSYSSDRFMIVGNAYDEAFYKEEYKALLWTKNKEQKPAKMSCNLYFNFAHGSRGFSTSVLAARYLCALINNEPLCLEKKYIHAIHPARFLIRKLKKGL | failed
MTASFPTRVYLLRHAKAAWAAPGERDFDRGLNEAGFAEAEIIADLAADRRYRPDLILSSTAARCRQTTQAWQRAFNEGIDIVYIDEMYNARSETYLSLIAAQTEVQSVMLVGHNPTMEATLEAMIGEDLLHAALPSGFPTSGLAVLDQDDSAASGKNRWRLIDFLAPGK | not failed
MKVLGYGREKKVILEAPNYDNDCVLANILAAHYLSSFDPVRARSYALAAESRLGKATLYEKAVFEAVSYLLSENMDDDVALELHSKLLKKFPKDLLSWKRVETLCSYMGRHDLSLPLFRKILPQNEGQVYVNGMLAFCLIELGHLREAEEAARKGCEINENDSWAHHALCHVLQTECRFKEAVKFMEEHSDSWDSCSSLRFSHNWWHVAVCYLEGGSHISKVEEVYDHQMWKELEKDDAVARDVYTDALGLLLRLDTRGKLDDGFQDRLEKLADSLTDKAMWYQDWLFDITTIWALSKVEKTSLAHELLEGLKSRTSAMNPKKQKLMQKAILLAEAVYEYGKGNYEIALELLGLDFDAANYKVIGGSGLQMDVFNEIWYKLLLLNGKSSTGTLLKNTIISIYFGYIFVFSATNSAFTTPEPAAIEVLEKVTKQRDGAPFLWRLLEESYSMEGKEKAGISAGKKAKALESSYFKSA | failed
NLNAIQNFGAMNILCTDKTGTLTCDKIVLEKYINADGSDDHSRRILRHAFLNSYFQTGLKNLMDKAILAHVREENLEHLTEGYTKIDEIPFDFSRRRMSVVIEDQQGKRQIITKGAVEEMLNICSHAEFNGQVYELTDKLRSKAKRISDDMNRNGMRVLAIAQKSFISKARDFAVTDEDEMVLIGYLAFLDP | failed
MEALAMAGVDYQEWGLSIEEWELQESVVPLHLLADDFKEEEQEEDHQDNDDDDRVLDGLAVKQSVTRDIRASVGKFIEQSMSHMIVHLKQLKFLTLLLENFLFTHVLDFLL | failed
PDGPTQLRALNLTEGFAVLHWKPPQNPVDTYDIQVTAPGAPPLQAETPGSAVDYPLHDLVLHTNYTATVRGLRGPNLTSPASITFTTGLEAPRDLEAKEVTP | not failed
MSPTLSILIPVYKRDCRRLLEELYKQAEELSVGYEIILGDDCSGEPYTSQYIAYEQEGLCRLVSAEENMGAGRLRNRLAEEAQGEQLLILDSDTLPASPDFIERYLRHASGTTVVCGGFVYPPKSTNPLRQRYGAEVESRSAEERARKPHSGFISMAFMIPRKQMLATGFPPNMGMGYEDILFGERLRQAGIPILHIDNPVEHYHCDTAEGFLATTRSYLDNLYCHREELAELVSLLRAYNLLKRLHLMRMVAALWPLIRSSLEKQLTGAKPSLLLFSLYKLLYVASLSLVCAEKS | failed
MGKVSSLKLKTNRRCIYITTIKEITEAIKADPDNAEYTAKGWDPLFHVLPTATILVISQAPGRIAQNTKTYFNDASGDRLRDWMGVTREQFYQSDRIAVMPLDFYYPGKGKSGDLPPRKGFMDKWHEPLLAMMPNVQLTLLVGQYAIKAYLGRSRQKTLTATVQNYQDYLPDYFPLVHPSPLNYGWQKKNPWFQATVVPDLQRRVQIALK | failed
MAEAGDENLYAAARDIARALGKDPSAAGDILQILSGYGASGNRGGDPRPTPSRGGSNVNFDRALTSLERQISSYIVEDRPIWSDPVDSRTFLDSVDELLAIAGDLRSMAGDKSVAVCQSRADELIQQVMFRLQEEFGFVMDRAPDSFDSDDEFPGEEDNDTSDGVIVARPITDYKIVIEALQSSVIGDLNAIAVRMVAGGFAKECSRVYSSRRREFLEESLSRLHLRGLSMEEVQESPWQDLEDEIDRWIKAVTLIFHVFFPSERLLCDRVFSDLPVSSVTDLSFMEVCRGTTTQLLNFADAIALGSRLPERLFKVVDLYEAMQDLIPKMETLFSDRYCSPLRHEALAIHKRLGEAIRGIFMELENLIRRDPPKTAFPGGGIHPITRYVMNYLRAACKSRQSLEQILDQTGNETGSDTRPLSVQIIWVLELLESNLEGKKRTYRDPSLCFLFMMNNDKYILDKAKDNELGLVLGEDWIVKHAAKLRQYHSNYRRSSWNQVVGLLRTDGPYPKLVENLRLFKSQFDEVCKVQSQWVVSDGQLREELRSSVAGIVSPAYSNFIRRLKESPEINGRRGEPFIPYTVEDVEFIIKRLFKESSS | not failed
MSPRRSAAEAQATRGRILGRAAEIASEEGLDGITIGRLAEELEMSKSGVHKHFGTKETLQISTLDKAFVDFWHRVVEPALAEPPGLRRLRAVCANSVGYLEEPLLPGGCLLTAALSEYDGRPGRVRDAVAEVWSRWREQLRADLTAAVDKGELPAGFDVEQALFEIVAAGLALNAAMQLQHDRTAADRARRAIERALAQS | not failed
